The target of this test is cell-surface MOG-specific IgG1 of 8.18-C5 hybridoma cells. The test is described as follows: flow cytometry on 8.18-C5 hybridoma cells, biotinylated rMOG and FITC-streptavidin. (In general: In flow cytometry, cells or beads pass a laser one at a time.)

As for recombinant, biotinylated MOG (rMOG), the percent of cells that bound rMOG is > 90%.
